Results published in doi:10.1101/2022.05.27.493400 (2022).

Biological target: human angiotensin-converting-enzyme-2 (ACE2) receptor, recombinant (human, UniProt Q9BYF1 18-740)
Experiment: SPR

Sequence of human angiotensin-converting-enzyme-2 (ACE2) receptor, recombinant (Q9BYF1 18-740): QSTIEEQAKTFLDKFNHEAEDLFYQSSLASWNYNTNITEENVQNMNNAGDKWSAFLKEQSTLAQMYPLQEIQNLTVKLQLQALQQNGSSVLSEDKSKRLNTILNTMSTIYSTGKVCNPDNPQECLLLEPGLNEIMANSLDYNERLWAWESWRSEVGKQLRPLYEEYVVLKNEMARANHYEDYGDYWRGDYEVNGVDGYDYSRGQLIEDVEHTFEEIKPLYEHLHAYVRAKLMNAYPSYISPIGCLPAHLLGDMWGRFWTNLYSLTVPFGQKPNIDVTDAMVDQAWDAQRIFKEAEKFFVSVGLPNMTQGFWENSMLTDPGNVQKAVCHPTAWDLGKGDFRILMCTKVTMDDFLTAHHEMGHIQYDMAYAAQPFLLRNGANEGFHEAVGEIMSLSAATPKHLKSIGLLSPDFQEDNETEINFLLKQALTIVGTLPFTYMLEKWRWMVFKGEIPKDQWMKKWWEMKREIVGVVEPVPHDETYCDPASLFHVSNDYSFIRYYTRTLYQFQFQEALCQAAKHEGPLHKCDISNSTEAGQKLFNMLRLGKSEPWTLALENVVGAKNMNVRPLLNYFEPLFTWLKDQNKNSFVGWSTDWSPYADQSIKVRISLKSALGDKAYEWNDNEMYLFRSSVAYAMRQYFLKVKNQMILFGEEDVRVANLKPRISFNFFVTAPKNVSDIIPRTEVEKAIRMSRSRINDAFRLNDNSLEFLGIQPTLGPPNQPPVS

B1: pineapple-derived jacalin-related lectin AcmJRL (natural protein)
chain: SGLVKLGLWGGNEGTLQDIDGHPTRLTKIVIRSAHAIDALQFDYVEDGKTFAAGQWGGNGGKSDTIEFQPGEYLIAIKGTTGALGAVTNLVRSLTFISNMRTYGPFGLEHGTPFSVPVASGRIVAFYGRFGSLVDAFGIYLMPY
modifications: glycation (+162 Da, +324 Da) of lysines in part of the protein (ca. 10% bis-, 36% mono-modified, 54% unmodified); sites not determined
Kd: 36.4 µM
